Results from article doi:10.1101/2024.08.06.606614 (bioRxiv, 2024).

What was measured:
[1] = biological target: HYDIN (mouse (endogenous in mouse sperm)) (UniProt Q80W93); experiment: cryo-EM structure
cryo-EM structure = biological target: the molecule itself; experiment: cryo-EM structure

Row | stoichiometry N [1] | Molecule | stoichiometry N (cryo-EM structure)
1 | 3 | HYDIN, Q80W93 1-5154 | –
2 | – | SPAG16 (natural protein) MAAPSGVPPLRVLEELGIGLSPTGEVTEAVTSEGAYYLEQVTITETSEDECEYEEIPDDNFSIPEGEEDLEKAIHIIGEQARDIHILEQQTILPARNVMQEAIEDFLCNFLIKMGMTRTLDCFQAEWYELIQKKGSDFKGLGNVPDVYSQVMLLETENKNLKKELKHFKQAAEKAKEDLLRTQKERDFHRMHHKRIVQEKNKLIADLKGLKLHYASYEPTIRVLHEKHHALLKEKMLTSLERDRAVGKISGLQATLKNIDMGHIQVPVIKGSYESASITRESGDRAGHSCEKENSSEGPTQKSLREAREEVGYKSKLKNEKKDSEFPVDMQPDPNVTSCTENVSAAKFDYKLNNIFRLHELPVSCIVMHPCRDYLISCSEDRLWKMVGLPQGNVLLTGSGHTDWLSGCCFHPSGSKLATSSGDSTIKLWDLNKGECTLTLEGHNHAVWSCTWHSCGDFVASASLDMTSKIWDVNSERCRYTLYGHTDSVNSIEFFPFSNILLTASADKTLSVWDARTGKCEQSLYGHMHSVNDATFTPRGHIIASCDARGVTKLWDFRKLIPIVSIDVGPSSGNEVNFDQSGRVLAQASANGIIHLLDLKSGQIHKLVGHESEVHSVVFSHLGENLYSGGSDGTIRLWI | 2
3 | – | CFAP70 (natural protein) MDQTSSTTKIVHITVTNGYDLKGFKGDTPVTFVRAEFNQTVLGDSSKVTVSPEGTAKYNFTSNIDLSPDGGGALDDLAHKPLFLTVTEVLPKEKKQKDEKTLILGQAVVDLLPLLEGEESFETTVPLHPVPGSPLETPLPGSKQCSLDVKVFVAEPLLTPAQVSASNLLKVTLEAAYSVPESFIPVGPQQNYMVGLQVPSVGEKDYTMIFKNGNLKLGGEKEPVPRPKKWPIANILAPGASNIPDEFIVGGPYEEEEGELNHPEDREFRNQAECTKKRIVWDLESRCFLHPFAVASFQKRIADCRLWPVEITRVPLVVMPKAKPGKLEKIDDENQLSFHGVAYINMVPLLYPGVKKIRGAFHVYPYLDGTVFEKTKCLFSLFRDTGHHLVQNNKAGGLNSPLSKPLSKNLKEEKPGKDKDTEGRPRLGELQAPSIKSQSSDTPLESEAPLSHNLEGQQYIEAGTYIVLEIQLEKALVPKRMPEELARRVKEMIPPRPPLTRRTGGAQKAVSDYHTQIKSISRAILNEYYRMFGKQGPKLESDIDNETMEERKCQLNYELNCSGKYFAFKEQLKHAVVKIVREKYLKTTAFESQEELQTFISELYVFLVDQMHVALNQAVPDDVPSSTSTIQTSSEQLRLFAFEAEVNEKFEIAAMYYEERLVREPQNLENWLDYGAFCLLTEDNIKAQECFRKALSLNESHVDSLLLCGVLAILLENYEQAEIFFEDATCLEPTNVIAWTLLGLFYEIQNNDIRMEMAFHEAFKQLQARTLQTKLKSTVTIENMEEGVKVEPSFGPWGVVQESTTAIKTEGLSGMRPQSSHQLSPHTNMELHPQPQGPNTALSSLDEFLEESPKAQSESQEPMATGQPLEPSLVQRSSNALLKELTSKKDISKCQDSSAFSPPTQHVIAQPPVTIFMETIRFLMKVNAVQFVHRVLAHELLCPQGGPSCEYYLVLAQTHLLKKDFAKTEEYLQQAAQMDYLNPNVWGVKGHLYFLSGNHAEAKECYERTISFVVDASEMHFIFLRLGHIYLEEKEYENAKRTYMHACKRSPSCLTWLGLGIACYRLEELTEAEDALSEANALNNCNAEVWAYLALVCLKVGRQLEAEQAYKYTIKLKLKDQALLEEIHTVQEMVGFGNPSF | 2
4 | – | GOT1L1 (putative aspartate aminotransferase) (natural protein) MTSLSVFRDVPTAQKLEGSLLKIYRQDGYPSKLFLAYKVCMTEEGHPWVSLVVHKTRLQIAEDPSLDYEYLPLVGLKSFIQSSLELLFGKHSEAIAEKRVGGVHIVGESGAFQLGAQFLKTWRKNVKIVCIVSCQKEQCGLIFQDMGFIVYEYSIWNASDLCSDPSMFVEVLQHIPVGSILVIGNITDCKFTQNQWTKLMSIIKSKQIFPFFDIPCQGLSTGDLEEDTKILQYFVSLGLEFFCSQSLSKNFGIYDEGVGILVVAALSNQHLLCVLSQLMDYVQALWGNPPATGARIITSILCNPALFGEWKQSLKGVVENMMLIKEKVKEKLRLLGTPGSWDHITRQSGTHGYLGLTYQQVEFLVKKKHIYLPKTSRINFTCINARNIDYITQSIHEAVMLTEG | 2
5 | – | germ cell-less 1 (GMCL1) (natural protein) MGALSSRVLRPAGRTEQPEPTPGAGGAARRSDAGEDAGHSFCYCPGGRKRKRSSGTFCYCHPDSETDDDEDEGDEQQRLLNTPRRKKLKSTSKYIYQTLFLNGENSDIKICALGEEWSLHKIYLCQSGYFSSMFSGSWKESSMNIIELEIPDQNIDIEALQVAFGSLYRDDVLIKPSRVVAILAAACMLQLDGLIQQCGETMKETISVRTVCGYYTSAGTYGLDSVKKKCLEWLLNNLMTHQSVELFKELSINVMKQLIGSSNLFVMQVEMDVYTALKKWMFLQLVPSWNGSLKQLLTETDVWFSKWKKDFEGTTFLETEQGKPFAPVFRHLRLQYIISDLASARIIEQDSLVPSEWLAAVYKQQWLAMLRAEQDSEVGPQEINKEELEGNSMRCGRKLAKDGEYCWRWTGFNFGFDLLVTYTNRYIIFKRNTLNQPCSGSVSLQPRRSIAFRLRLASFDSSGKLICSRATGYQILTLEKDQEQVVMNLDSRLLIFPLYICCNFLYISPEKRTESNRHPENPGH | 2
